Experiment: soluble on expression in E. coli; label from the status in PepcDB or PDB records

| Sequence | soluble on expression in E. coli |
| --- | --- |
| MENLQIGVVGVGVMGKSLALNFESKGYSVALYDISKEKVDETIEENRGKNLVGTHIVEEFVNSLESPRKILLMVNAGEITDKAIDSLVPHLDKGDILIDGGNTYFVDTIRRNKRLAEEGINFIGAGVSGGEEGALKGPSIMPGGQKDAYEKVKDMLENISAKVNNEPCCSYIGPNGAGHYVKMVHNGIEYGDMQLICEAYFFLKQTLDLTAEEFHEIFAEWNKGELNSYLIEITADIFKKKDEETGKPLVDVILDTAGQKGTGKWTSQSALDLGISLPIITESVFARCISALKEERVNASKVLSGPKDKTAIGVEKAELIEAVRQALYMSKICSYAQGFTQLKAASEEYNWNLDFGSISMLWRGGCIIRAAFLQNIKEAYETNTDLPNLLLDPYFKEIVESYQGGLRQIISMAVQQGIPIPAFSAAISYYDSYRTAKLPANLLQAQRDYFGAHTYKRVDKEGTFHTKWI | not soluble |
| MSLTRFPVTALRSVDLGTPDLARSEAFYREVWGLERVGTAGGVVYLRATGRDHHVVALHRSARTELRAVTFRVADADDFEAISRNAIEQGATLIAAPAANMAPDGGTIMTLRSPEGGLLRFVHGDIRHDARPSRPELPERLAHVNLNSTDVDRTAAFYARALGFKLTDRSAAMAFVRCNSDHHAVVIAAAKVNGLNHVAFLMPTWEGVMRGSGRMIDAGYPIAWGVGRHGPGDNVFAYFIDPVGTVIEYTAEVLQVDDDYVVRGPEHWVWPPGRTDQWGIAPPKAEHVKAAQLAVGFAAEGHHHHHH | soluble |
| MSGAFNNDGRGISPLIATSWERCNKLMKRETWNVPHQAQGVTFASIYRRKKAMLTLGQAALEDAWEYMAPRECALFILDETACILSRNGDPQTLQQLSALGFNDGTYCAEGIIGTCALSLAAISGQAVKTMADQHFKQVLWNWAFCATPLFDSKGRLTGTIALACPVEQTTAADLPLTLAIAREVGNLLLTDSLLAETNRHLNQLNALLESMDDGVISWDEQGNLQFINAQAARVLRLDATASQGRAITELLTLPAVLQQAIKQAHPLKHVEATFESQHQFIDAVITLKPIIETQGTSFILLLHPVEQMRQLMTSQLGKVSHTFAHMPQDDPQTRRLIHFGRQAARSSFPVLLCGEEGVGKALLSQAIHNESERAAGPYIAVNCELYGDAALAEEFIGGDRTDNENGRLSRLELAHGGTLFLEKIEYLAVELQSALLQVIKQGVITRLDARRLIPIDVKVIATTTADLAMLVEQNRFSRQLYYALHAFEITIPPLRMRRGSIPALVNNKLRSLEKRFSTRLKIDDDALARLVSCAWPGNDFELYSVIENLALSSDNGRIRVSDLPEHLFTEQATDDVSATRLSTSLSFAEVEKEAIINAAQVTGGRIQEMSALLGIGRTTLWRKMKQHGIDAGQFKRRV | soluble |
| MKMPEHTDTPKEKILVYIRAEKQKTLHRRQVCINDIASVYCKYSRYEGQIKGIIVDKIRGKKSVISVMKIIEQITEIYDDAQVISIGEPEVLVEYDDNSKNKILEA | soluble |
| MSRIVNVKLSLKRYEYEKPFHITGSVSSESRNVEVEIVLESGVKGYGEASPSFRVNGERVEALLAIENAVREMITGIDVRNYARIFEITDRLFGFPSLKAAVQFATLDALSQELGTQVCYLLGGKRDEIETDKTVGIDTVENRVKEAKKIFEEGFRVIKIKVGENLKEDIEAVEEIAKVTRGAKYIVDANMGYTQKEAVEFARAVYQKGIDIAVYEQPVRREDIEGLKFVRFHSPFPVAADESARTKFDVMRLVKEEAVDYVNIKLMKSGISDALAIVEIAESSGLKLMIGCMGESSLGINQSVHFALGTGAFEFHDLDSHLMLKEEVFRGKFIQDGPRMRVKDQ | soluble |
| DYMRFALKGKQGKGMKMPEGVVSSNGEYYMKERMVTDPGLTLDNSGIAPQPSRRAKEDDGGAAEGGRQAADDEVRQDMQETPVLPSNTGSKQQQLDSLF | not soluble |
| NMRQVLKTDRLVLEPQSMARFDQWFAMERQRDEAGHRDLTEDQAWLRLCARQGMWDAYACGFYYLLDPVSGEMRGEAGFQFRRRGFGPGFDNHPEAAWAVASAHQGRGLAAEAMQALLAHHDRSSGRQRVVALIARSNLPSLRLAERLG | not soluble |
| MSHCSCHDKPQHSLLPAAYRILSITRHTPLEWNFRVAVDFPAHWGQFVEVSLPRVGEAPISVSDYGDGWIDLLIRNVGKVTSALFTLKEGDNVWLRGCYGNGYPVDTLRHKPLLVVAGGTGVAPVKGLMRYFVENPQEIGQLDMILGYKNRDCVLYKEEMATWRGKHNLVLTLDEGEADDRYQIGRVTDRLADMTLSDIDTMQAIVVGPPIMITFTVKMLLQKGLKPEQIWVDYERRMACSVGKCGHCRMGEVYVCTDGPIFNYAVAQRFAD | not soluble |
| MSLKGENMRVAGLKTDKQGVIFDMDGLLVNSEELYWQANIQAAREYKLGISDDAYLDLVGASVKAMDAFYEKYFPSDEVRQAFVKRTDDLVWEWTDQGKLKLKAGVKEALEYFNDLGLTVGIASNNYKSVVDHNLWVTGCRNSFDFIVTHDEVAEKKLRSKPFPDLYLAAQERSGLGKDQLLIFEDSSMGVEAAENAGIDCVMIPDIKPASAEDRARAQLICPDFFDFLKKISEGHHHHHH | soluble |
| MESISRSPRIFLLSLGRWNSGISVCWYSPRHPRAIISDPAPRIAREHATVLFGDSHASEENNAARRRNFHNKKTSRGGNDDKQSRGNNAEKRKRRDPMTSQGPDSDEDELQEMTNKDRLKRAKRKGIDPMDPGAHGGAPVEKWSDGLRVDHVTGADVTAGGPLFQQRPYPAPGAILRKHKPQDEEDDQQFNFLKSF | not soluble |
| MGSDKIHHHHHHMTEKKIILADEPLKSPDQDKLGFAPFAKRIATVIQSVQLRESIVFAVYGKWGSGKTTFINFLTSYLNHDSSITIVKFDPWWFSEKEDLIRQFLSNLQFTLNKSTKFKDIAKMLKPYIETLGEIPKFGWIFKIASRFKKNLQKSVIETKEEIINRLKEKDGKIVVIIDDIDRLTAKEIRELFTIVKAIADFPNTVYILAFDKDIVIRALEKVQEGKGEDYLEKIIQIPIELPLADKTSIRKMLFEELDAVLSGTSNELFDSTYWRNVYWDGIDPFINTVRNVKRLINTIRVTYPSVKNEVNAVDFIAIETLRVFCPEVYSIVKDYPDMFCGYSGEIYDVSRRHIEFLKQFHQNWLSRLNFPDDLKENIKNLLKRLFPKFESVFENIYYGPDWEREWRKKYRICCKEIFPRFFIFSVPSDDLSKHEMDFILSSLHNKEALIEHLKRLATQIRSDGSTRLSIFLERMEDYASEISQDYIPVVIEVFFTIGDKLIIPEDENKSFLIPWGNDIRMERIIWRLLRRYDNNSKRFEVLKNAFKNGQALFMMVNVLILFWQQHRKYRDAKESDAILLDENHLKTLQEIVLDKIRKAVEEGSLLNTPSLPVILHQWREWANEDEVKEWVKEIVFSDEKLPIFLTKFLQKTVSWTETSRATNIYWQIDLNWLKDFINLDFLEKRCNEILSNDSIIGTLEDKQKLAIRLFLNEKTKSLDSSTEEQGKDG | not soluble |
| MIDDIRYLIVFAKIAETGSVSGGAEALGLSAATASLHLSRLERNLGRALLYRNSRKLSLTQDGTQLLDTARSMLELYEKGFIEFRQRAVSTRNSLRISMPAVFVNGDFTRHLAAFIEEHPDLDLGIACDDSRHDIIGDGIDIAFRIGDLPDSSLKARHLFLLPRQVVAAPAFLARHAPLEHPRDLQRLEWIGLGMRPDSRLFRHARDDEEVRVDYTPRVRVDSVEASCRLARLGVGLAAPPTYLSDEPIRRGELRAVLPEWRLEPLKVYAVWPPNVPASSIAYTLINRLYEAFNPG | not soluble |
| MSEQQVQELEKKWYALQVEPGKENEAKENLLKVLELEGLKDLVDEVIVPAEEKVVIRAQGKEKYRLSLKGNARDISVLGKKGVTTFRIENGEVKVVESVEGDTCVNAPPISKPGQKITCKENKTEAKIVLDNKIFPGYILIKAHMNDKLLMAIEKTPHVFRPVMVGGKPVPLKEEEVQNILNQIKRGVKPSKVEFEKGDQVRVIEGPFMNFTGTVEEVHPEKRKLTVMISIFGRMTPVELDFDQVEKI | soluble |
| AKDALLLWCQMKTAGYPNVNVHNFTTSWRDGLAFNAIVHKHRPDLLDFESLKKCNAHYNLQNAFNLAEKELGLTKLLDPEDVNVDQPDEKSIITYVATYYHYFSKMKALAVEGK | soluble |
| MTLCAMYNISMAGSHPTTICVVMDRFLESFSELYDIIDENDTDVMMDFISRFARTDEIMPEDKTVGFVVVNADKKLMSVSFSDIDENMKKVIKATAEKFKNKGFKVETDM | soluble |
| SLKVKAINLYTYKEPFKSPISTPKVKLTHRESLFTEIVTYSGETYYGECNAFLTNWYDKETILTVVNRLRQWIPQVLHKDMTSFDSWLPYLNQMNDAPAARSMVVMAVYQMYNDLHDFEVQYGATVSGLTNSQIETLLETRPKRIKLKWSTSLIKDLETIRLLNFDCDIAIDANESLTKPSFLQLANVNTSDIIYIEEPFKILEDLNDIDMSIFPRIAIDEKALSIEKIQSIIQQYPIQVVVLKPFRLGGIDRMLNAMKILKEKNIRFVVGGMYEFGLSRYFTAMLAKEGSYPGDITPHGYYFSNDIVETSGILKGGMIYFTPPKVKRSLLNKV | soluble |
| MYTLLLVDDEERMLDLLELYLAPNGYRCVKRRSGAEAIDYLRRHHADLVLLDVMMPELDGWETCRRIRSFSNVPIMMVTARDETADIVQGLKIGADDYVTKPFDEAELLARIEAVLRRTAGGRSAIRAAGLVWDEEEHTVRYEDKPIALTPKEFAILGLLLKHPNQVFSRGQIIASLWGYLADTEERTVDSHMKNIREKLRKAGFPADEYLQTVWGVGYKWEGRKS | soluble |
| MSLKIAVIGCGAMGSIYAAKLAAAGEQVLAVDRHRPSVERINRDGLRVTGPGCDQVVPLRASTGAVDETMDLVVLAVKAADVEAAARQALPMLGPDTAVLTIQNGLGSAETVAGVVGAQRVAVGIASGFGASRVAPGHVHHNAMRAMRFGPYSSLPHARVESIARTWAHAGFDAAAVTDIAAMQWEKLICNVAYSAPCALTGMTVGQVMDDAEMGPVSRAAATEAWSVARASGVAIAVADAVEHVRAFGAQMPDAKPSALLDHEARRVSEIDVINGAVPRQGARVGVDAPVNATLTAVVKSIERRWREGHHHHHH | not soluble |
| MGSDKIHHHHHHMKIIPVFLPYAGCKKRCVFCDQIKATGQAKVPSLDDIARIIEEYSRTSNEYELGFYGGTFTGLSEEKMEEYLRFVKRFPVVKSVRVSTRPDEINERKLKILKKYGVNVIEIGVQSFLDEVLERSKRGYTSEEAEGACKLIKKNGFVLSVHLMVGLPGSDRRGEILSALRTVECGADMVRIHPTLVFEGTELHRMMEEGEYTPLNVEEAVDVCSDLVCIFEGWGTKVIRIGYHVPVELRKYVVAGPIDPSLGDRVRRTTMKKVIESLKPSRIVVPKNYLVWFEEAKVEVGDEFRFDDLSYADALFFTGKEVVERWLNG | not soluble |
| MKDFPIRFVLTDEAITPSAGLALVGYLLHQTKLNKRVNALRPPTVRRDVHISHSDVIRSMIGLLATGKTDFDHIEAYRQDDIFSTSMGIQHVPSSPTLRQRLDQLACLPMTETILWEESMRLLIQRHATLSPCWAKGKTTWLPLDIDGSPFDNSDTKKEGVSRTYKGFDGFTPLFAYAGKEGYIVHAELRPGKQHVQDNMPSFLTTAIRRARQLTSSRLLVRMDAGNDAEANVHVCLKEDVDFVIKRNLRRESKALWFQIASQKGKRVDDGQTEGVQTYELCLPQTAAIDGNTYTYVQVTQVTERTMERNGQVMLVPNYEVESYWVRLKGYEHVRMSDVLALYHDHATCEQFHSELKSDLDLERLPSGKMKTNALVLVMGAFVYNLLRLIGQDLLSDPRHPLHHKVKRRRIKTIIQTVITMAGRLVRRSRQLWMKLTRRSGYSILLLNVYQKWKEAR | not soluble |
| MPYADNGVKIYYEVEDGGEPAIVFVHGWTANMNFWREQREYFKGKHRMLFIDNRGHGKSDKPFNRSFYEFDNFVSDLHAAVKDASFDRFVLVGHSFGTMISMRYCVEHPGRVEALVLIGGGARIQSLHRYGYPIGRLFATLAYGISARIIANMAFGRKAGELRDWGLKEALENTPKHAALNTLWTLTTVDLRDIAREIEKPTLIVVGKEDALLPVSKSEELSRLIKNSKMVIVPDAGHCVMLEQPEIVNRVLEEFIHTFSAMLIRA | not soluble |

— the DeepSol protein solubility set
